# According to paper PMC5345815:
# Molecular target: recombinant gp41 of HIV-1 (ectodomain, amino acids 533-684, from clone pNL4-3), secreted from 293 cells (HIV-1 (infectious molecular clone pNL4-3))
# Assay: native gel or EMSA; Novex Native PAGE 4-20% Tris-Glycine gradient gel of purified gp41, Western blot with 2F5; single band below the 170 kDa marker
substance,measurement,value
"recombinant gp41 of HIV-1 (ectodomain, amino acids 533-684, from clone pNL4-3), secreted from 293 cells (domain or fragment)",stoichiometry N,3
